# From article PMC5582136
# Experiments:
# [1] = target: fibrillin-1 cbEGF22-TB4 domain pair (residues 1486–1605) (human) (UniProt P35555); assay: SPR
# [2] = target: fibrillin-1 TB4-cbEGF23 domain pair (residues 1527–1647) (human) (UniProt P35555); assay: SPR
substance,measurement,setting,value
native αVβ3 integrin purified from human placental extract (from UniProt P05106 27-788) (receptor),fold difference in Ka against TB4-cbEGF23,[1],2 fold
same,koff,[2],0.0016 s⁻¹
